# Results: patent US20110223107A1
# Positions count from the first letter of the chain named.
# T1: Fc-fused truncated mutant of KAAG1 spanning amino acids 1-35 (human)
# T1 sequence: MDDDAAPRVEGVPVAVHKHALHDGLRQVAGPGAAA
# B1: 3D3 mouse anti-KAAG1 Fab (Fab, V domains shown)
# VH: EVQLQQSVAELVRPGASVTLSCKASGYIFTDYEIHWVKQTPVHGLEWIGVIDPETGNTAFNQKFKGKATLTADISSSTAYMELSSLTSEDSAVYYCMGYSDYWGQGTTLTVSS
# VL: DIVMTQSPSSLAVSIGQKVTMNCKSSQSLLNSNFQKNFLAWYQQKPGQSPKLLIYFASTRESSIPDRFIGSGSGTDFTLTISSVQAEDLADYFCQQHYSTPLTFGAGTKLELK
# B2: G12 (Fab, V domains shown)
# VH: B1 VH with L20V, V42A
# VL: DIVMTQSPKFMSTSVGDRVSITCKASQDVGTAVAWYQQKPGQSPELLIYWTSTRHTGVPDRFSGSGSGTDFTLTISSVQAEDLADYFCQQHYSIPLTFGAGTKLELR
# B3: A9 (Fab, V domains shown)
# VH: QVQVQQPGAELVRPGASVTLSCKASGYIFTDYEVHWVRQRPVHGLEWIGVIDPETGDTAYNQKFKGKATLTADKSSSTAYMELSSLTAEDSAVYYCIGYADYWGQGTTLTVSS
# VL: DIVMTQSPSSLAMSLGQKVTMSCKSSQSLLNSNNQLNYLAWYQQKPGQSPKLLVYFASTRKSGVPDRFIGSGSGTDFTLTITSVQAEDLADYFCQQHFNTPLTFGAGTKLELK
# B4: Fab of well C2 (Omniclonal AL0003Z1 plate) (Fab, V domains shown)
# VH: DVQLQESGPDLVKPSQSLSLTCTVTGFSITSGYGWHWIRQFPGNKLEWMGYISFNGDSNYNPSLKSRISITRDTSKNQFFLQLNSVTSEDTATYYCASSYDGLFAYWGQGPLVTVSA
# VL: DIQMTQSPSSMYASLGERVTLTCKASQDIHNYLNWFQQKPGKSPKTLIHRANRLVAGVPSRFSGSGSGQDYSLTISSLEYEDLGIYYCLQYDAFPLTFGAGTKLELK
# B5: 3C4 mouse anti-KAAG1 Fab (Fab, V domains shown)
# VH: B4 VH with D1E, S53N, F54Y, N55D, D57H, S58N, N59D, R72Q, S88T, P111T
# VL: DIVMSQSPSSMYASLGERVTITCKASQDIHNFLNWFQQKPGKSPKTLIFRANRLVDGVPSRFSGSGSGQDYSLTISSLEFEDLGIYSCLQYDEIPLTFGAGTKLELR
# B6: Fab of well D1 (Omniclonal AL0003Z1 plate) (Fab, V domains shown)
# VH: B4 VH with D1E, N44D, S58Y, N84S, S88T, P111T
# VL: B4 VL with Q3K, L21I, N31T, K45E, H49Y, A56D, L83M, A93E
# B7: Fab of well E10 (Omniclonal AL0003Z1 plate) (Fab, V domains shown)
# VH: EVQLQQSGPELVKPGASVKISCKASGDTFTDYYMNWVKQSHGKSLEWIGDINPNYGGITYNQKFKGKATLTVDTSSSTAYMELRGLTSEDSAVYYCQAYYRNSDYWGQGTTLTVSS
# VL: DIVMTQAAPSVPVTPGESVSISCRSSKSLLHSNGNTYLYWFLQRPGQSPQLLIYRMSNLASGVPDRFSGSGSGTAFTLRISRVEAEDVGVYYCMQHLEYPYTFGGGTKLEIK
# Target: Fc-0447 1-60 (human) (UniProt Q9UBP8)
# Assay: ELISA
row,OD450,Binder
1,1.33,B1
2,1.52,B2
3,2.29,B3
4,0.48,B4
5,0.57,B5
6,0.27,B6

# Target: T1, Fc-fused truncated mutant of KAAG1 spanning amino acids 1-35 (human)
# Assay: ELISA
row,OD450,Binder
1,0.33,B7
